According to the NTF2 design screens of Basanta et al. (2020):

Test: protease stability score; higher = more stable; yeast display proteolysis, trypsin and chymotrypsin;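 note: log10 excess protease needed over predicted unfolded state with 0 meaning unfolded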

| Sequence | protease stability score |
| --- | --- |
| DENAERVLREIVKALEQGDPDRWKQNVDPNVKFRVGDKDVHGREEIVKTLSSLHDQIRFHVKFEHMDNQGDKIRADARVHQNVDGRPLSSSVVVRLTVHNGRVQEMRMNMDEHYVRDEQK | 0.068 |
| DENAQKLAREFMHAVREGNPEEIKKQVDPNAKMVVGDKEITGREEMSRQRERELREIEIDYRSVRVDVSGDKAKLDIKFERNDNGKPQQQQQTMTFVHQGDKIKHLVIKQHS | -0.373 |
| DENAVRVVKELWKALNHGNPDRVQQLADKDARVQVGDKDVHGREKMAKLVDTLKKEIRMDIKVHSISASNGRAKIDFKADEENNGKPQTYEATANVTIHNGKVVSMRVNKDQ | -0.428 |
| DENDAKELRHFIEVMVRGDPSKLMQLADKDASFHIGEKQVHGREQISSEAEQRNREIKYEIKDLKVTVHGDKARVEAEMVKNHNGKPEHYRYVVTASLRNGKIKEVTVNKRQ | 0.875 |
| DENDTARKIIKTLLDIMREGDEDKLRDQMDPNVRADVGDKTVHGREHAAKFLAHIVKRADHISITLKSLHNHNGRLRMQAEVRIVHNGRTERVTLEMVFRDHNGKLLIERMKYG | 2.51 |
| DENDVKRVLDKLKDNNWEDLVKLMDKDARVEIGDHTIHGRENVHQWMSTIEKQVDHFQIDTMTVKGDTLDANVRMVVNGRKIVFRLKVSLKNGRITRIRFQATDEEQHQQIRQMLR | 1.29 |
| DENELELYKEVVEAENTGDPDEMKELVDPNVNVQVGDTTLHGMSELVKDAKRRRKQMRVDIKVTSMKAHNGRLEIRLEVVFEVNGRPTSDTITVTVHAHNGKVKEFNYHMDPDREKRQRS | 1.03 |
| DENELLKTFMDIFRRAIKTGDEKLLRTMMDKDVKARVGDKDVHGREEADKEFKKIWDHADHVDIKVKEVTINGDKAHVTMDAKFVVDGKSQKVNIHVKAEVKNGRLKAKHITMG | 2.03 |
| DENEMVQLARKLARVLETNDSDKMREMIPPDASIEIGDRRLHGRESVEHLMKDMHKRIDHLTVDSVNVDNGRVHISARAKHNGRTRRVQFYALIHNGRIHVISFRTK | 1.34 |
| DENENEEFARKFLENLRTGDPDKVMELVDPNAHVTIGDKEIKGRDQVKRWVEEHKRRADHLDVRDMSVDGEKITARIVVNINGENKYQKVEISIHNGHMTHMSVHDE | 1.12 |
| DENETAKDILKELVDILKNGDEDSFARMFDENARITVGDKTYTGRDEVRKYASQIHRRVDHIDVKLKSVTTNNGRIEVSARFVFQVDGKEDDRIFRLVVRKKGDKWVIERQSLE | 1.64 |
| DENHKVRELVDRFKEAYDSNDPDQYQNQFDKDATVTVGDKVFHGDEQAKQMAEDIMRNVDSFSISLKRVRVRGDKVRVSFKVVNNRNGRHKTIHVTAVFVFDNGRLRAKSWHFQ | 0.73 |
| DENHLKEVAEEYNKVLNNGDPDKHVEQVDKDVDVKVGDKTYHGREDDKKWMEHFVERVDHLEVKRVEVRGDKVRIDMVVNVNGDNVKMQVNINLHNGRVQEVSVNPDQLEKFKQ | 0.22 |
| DENIKRTMSDFLHAVRDGDEDKLFKLADPNARMKYGDKDVHGMEEIVHQIKRLRRDASVDIHIKRVEVDGNRVDIKLEVVVNVNGRPQRYRFEIKVRFHNGRINALENNIDEDQLRKIES | 1.21 |
| DENKEAKHFAQDINDAFQHNDPDHLNRLFDPNARMQIGDKEIRGKEQFKEENRRMVDQVDKVEVHVKEISVHNGRVEFVLIIRENHNGRNTQTSVEVNAEKQNGQIRIRQETEQ | -0.307 |
| DENKENEQFLRNYSKQLKDGNEEQLKRNFDPDAKVRYGDKDVSGREQIQKRIADEARKVDHYEITVKRVEKRGDHVRVEFDVRRHVNGKEESMDVVVIFVKHNGRMVISTVTID | 0.036 |
| DENKKAEKVARDYIKNAQTNNSESLKKLADPNVEVVIGDTTYTGTKDFVKFVQEIVRQADHISLNVRSVEVQGDKADVVAEVRVDFNGNQRRQDIRFHAQLQGDKVKLKMIQYK | 1.06 |
| DENKLKEVANRIVSAVRTNDPDHLANLFDKDDKFQIGEKQFHGHEELRKALEEIHQEVDRLHVKTYELHNGVVKIHVDMKYNGHEIKVVFYFTVHNGRLKYMEVKSQ | -0.346 |
| DENLERQASRLISALLDNDPDLAVELVDENVKVQIGDKTVHGRETVHRHIETLVHHMRMDLDRFHVEVSGEKAKITLDVRFKINGKPIKDTLDVFFTAHNGKIKSVHFRMPEEHKKQVDR | 0.899 |
| DENLLDHMKRLFESGDWDDFSKNADKHVRVHIGEFNYRGREQARTVMNKLQKSADHVEIKRISVHNGQLQMDVTVVVNGETITVRIAAHVSNGRFVELRMSATDSKDKKALQKVQS | 1.03 |
| DENLNTLMTQFMRAIQRGDEKRAKQLADPNAEIKYGDRSIHGMDQHADTIRKIRRKMRVDVTEVSHTTDGEQVNVEVTAIFNHNGEPKKRKFQFSATISNGRIKQVEVQDSQ | 0.654 |
| DENQVDQLKELMDALQNNDERKANDLADKNARIRIGDKDVSGRSDMNRMVRELHERIRFTIRTVELHHQGDKVIAKVKVEMDHNGKPNDVTQNAEAKYHNGHLQRLFFDTRS | -0.433 |
| DENREASTFMEQLQRNLRDGDHEEVVRMIDENARLEVGDKRIEGDHNVAHELMNQARRVDHFKMNITHLEVSNGRVKVVFIAKYEVNGRTEVNVYEQVLEIENGRLSLVSRRRK | 0.545 |
| DENRLRHLAHHMVEVLKTGNEEEIERLMDENVRLTYGDKEVHGRENVRQYIRQLREEIDHFSVQEIDVSGDKVTIVFTFIVNGQRVRAVLKVRFHNGRIVEATIEYTDEDQKRRADS | 1.35 |
| DENTEAQRFADNFNKLMNTGDEDTLNKLFDENAKVEVGDHRLHGREKLTKLAETNKQRFDHVKVDVDDIKVDNGTVQMRAVVIVYHNGRHHSVELEVVAQNHNGHARVKRMRVG | 0.553 |

| Sequence | protease stability score |
| --- | --- |
| DENTQKQIAKKVVDVIRNGDPKQLHDLFDPNARLNIGDRTYTGSKEFQKHAETLRRNVDHIQVKSIDVQGEHIHINMVLNVNGKQYNANFRVDVHNGKAKQMSVEYRDKEEYKTLKR | 0.362 |
| DENVLKRVKELLRTNNWEELANKADKDVEMRVGDKEWRGREQVVRAHKKLYDRVDHFKIDSMHWRNGHLVVNFVAEVNGKRAVMVLEMKVHNGRIKRITLEARDKDDEEFIEEALR | 1.47 |
| DENVRRLVEHLIRAVQSNDPDKVVENLDPNASIHVGEKRYHGEDRAKDMYETEKNQMRVQVRLTQLHVQGNHAKLRETVLIDHNGRPVNVSLDMSLIAHNGRVHEIHETVPEENRKERKG | -0.029 |
| DENVVKEVEKLLEWIQSGNEQHIQEMMDKHARAQVGDQKVKGRKQVSTQWRRLAEDIDIHARVKDMKNDGNRAILEIHQVRHHNGDPDEFHANQIVTMHGDRIKHLELQNTK | -0.283 |
| DENVVKRVHDALQTNDWQQLADLFDKDARVHVGEFQLHGHEEVQKFVDLQRKQIDHMEVRSIEIDGERAEAEFVIRVDGRKREAEITIRANNGKAKEMKIQFTDKDFERKMREKME | 0.836 |
| DENVVKTAKNWFKAVQTGDTQEIHKNADPNARFQIGDKEYEGMEEYDKEQKERFEHMRVDYKDVTIRADGEHLHVKVKAKVNVNGQPHDVTFTIEARVDNGKFKEIVVKFDPDQQDRVEK | 0.338 |
| DEQAKEHIEEWMKAVKTGDEHTLREMADENAHFEIGDKTLHGMREFVKEQAERFRNIRVSYKRIDIRVQGNKVTVVVRFVVQHDGRPDERTVTFVFTFHNGQIENMQVKDEQ | 1.17 |
| DEQAKEVAEHWWEAVKKNDPTQAKENADKDVRARVGDQEIHGREDLATWLDQQKREMRIDLQIDSVSVSNGTLDIKAKMQVEDNGTPEHNTVEASMVVHNGRVKQFHIRVTK | 0.96 |
| DEQAMSVAEELISALNTGNEDQVDRLMDPNAHLQVGDKRLHGREEVRRHVKTLKDQARFDMKVDSLRVQGEKVRLDATYTFEVNGRPREDRVIIDMTLTNGTVKRIRFNFDPDDWRKMEG | 1.04 |
| DEQAQKRAKNFMTAIQSNDPQKVKENVDKDVNIRIGDRIVHGREQLEDYYSHWNTKMRQRVSFKRMDVQGNHVDLKAEASNTNNGQPNHFEVRITITFHNGKIEKANLEFQP | -0.422 |
| DEQATEVIERFLTALQRNDPHELKKQLDEDVRMNVGDKTLHGRDSFEKTWHEKLRTQRIELKDYRIEVQPGRVKAHVHYVVEHNGRPRTKRHTFSAEVHNGHVKHFHQQDEQ | -0.462 |
| DEQAVNEVEKMWRAIHDGDPERINKMFDPNAKFHIGNKELHGRENFATTMVKEQREIRRRVDIIRMSAHNGRITVRYRVDAEVNGEPYSNDITVSATVHNGKATDFTVHVDEDYLRKFNS | -0.004 |
| DEQDDAHKAKEFLEAVVTGNEERLRRMVDPNARIHYGDQEYHGREKIVDLMIRWRERVDHFTIDRVHSHNGRVQMDAFFTHNGRTKRFVARVVVHNGKVKSIEYTDG | 0.017 |
| DEQDEVKTLLDEIRKALETNDRERLRELVDKDAHFEYGDKKYQGSEHAARQMVEEQKNIDSQSVQLRDVQIHNGQANVDVVIEYTHNGRKRTFDAKFRFKVENGRVKLVENVQS | 0.895 |
| DEQDLKKVREFVQAQEEGDEDKLRELMDPNARVRVGDHRINGMDEIVKTDKKEVDDIKLSITDLKMHVKGDHMKVRIHQIVNHNGRPHTKTVDVVAHRHNGRLKSMERQDTK | -0.122 |
| DEQDLNSVKENLKAIETNNPKRVKELLDKDARAQYGDKEVHGRDEIADQQRKEREDIDIRIDWKRMNIDNGRIHMEFEVQYNFNGKPLTNKVTMRNEAHNGSIKAMFWQLSEDQQRELDS | -0.374 |
| DEQDNEKARRIMDRGDPHELNRMADKDARVQVGDKTWHGRSQFEEFVKRFHDRVDHIEVKSVHVHGNEVRVDLVVVVNGHEARFIMVASVHNGHATSLSINVTDPRVEEVLRDIFD | 0.014 |
| DEQDQAKKFNDEVRKIFETGNFRQFARLLDKNVTAEVGDQEVHGKEQAHKWAEDVWRTFDHIHYNMVDVDVENGRVEVHVQLTYDHNGTTERRTYVMELKLSNGRLKIVHMKQG | 0.809 |
| DEQDQARKNVKTLANAIEDNDENQVHRLMDPNARLRIGDKDYHGREEAAHAMREIRETFDHIRIQVTRVRVEGDKINLIAKVNRNHNGRNEESEVDIQFVQDNGRARIVRLVDR | 0.554 |
| DEQDQARRIVRHLLSAIRNNDPHRFQNNVDENVTLQYGDKTYNGDEDVHKYIEQFKREQKNARLRLLRLRIDNGRIDVIVRLRADHNGKEIRQIIVFHLVVRNGQARVETAHEG | 1.17 |
| DEQDQLKLAERVLKAVNDNNPQKFEELADENATVKVGDKTWHGRSHAQEMIKRFKERVDSLEIKHIDNRGNRARVHLVLEHNGRTTEMSIVVTVENGRAKAVVVHTK | -0.133 |
| DEQEDRDMKKMYKNLQEGDDQRVADMADPNARWRVGDKTYHGKDSIRHWAKEVHDRMHFRIQSITVQNENGKVKVEIKWVTDENGKPVDQTVQVKAELHNGHIVDIDITTQS | 0.731 |
| DEQEDRDRLEEALHAVMTGDEDRLMELADPNVEIQIGDKTFHGNTEARKVVETLKRKVDHLRVEEITKRPGSAFVIAVMEVNGKQVTVTVRIQAENGRIVHVSMNPKQLQDLKS | 0.776 |
| DEQEERDFNRNMVEILQQGDEEKARTNMDKDAHATYGDREYHGREQLADLLKEFRDRVDHIEMKDYSVTNGRVNVVFVAVFDGKRVELHADIQFRNGRIKRMTFKFRNEEQQKKLER | 0.361 |
| DEQEHAKRVVRRLIDAFKDGDPKTYAQQLDPNVRIQIGDKEITGREKVREEFRTVRQRVDHVNLHVKRVDVNGDKIVVQIRVVRKHNGRTEQRTLVVEVRDHNGREVVKHVSFK | 0.884 |
